Data on 10 molecules can be found in patent US20200255522A1 (published 2020).

T1: VEGF (UniProt P15692-9 27-147)
T1 construct: also called VEGF121
T1 sequence (looked up): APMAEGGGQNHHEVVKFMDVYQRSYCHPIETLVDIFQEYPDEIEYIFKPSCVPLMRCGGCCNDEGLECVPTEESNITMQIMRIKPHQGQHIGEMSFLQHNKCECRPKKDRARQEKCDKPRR

B1: bsAb from exchange reaction between anti-dig 2/3-IgG (MHCFcRP-knob-E357K) and anti-PDGF 2/3-IgG (MHCFcRP-hole-K370E) (bispecific antibody, not shown: small tags and cut ends)
heavy 1: QVQLVESGGGLVKPGGSLRLSCAASGFTFSDYAMSWIRQAPGKGLEWVSSINIGATYIYYADSVKGRFTISRDNAKNSLYLQMNSLRAEDTAVYYCARPGSPYEYDKAYYSMAYWGQGTTVTVSSASTKGPSVFPLAPSSKSTSGGTAALGCLVKDYFPEPVTVSWNSGALTSGVHTFPAVLQSSGLYSLSSVVTVPSSSLGTQTYICNVNHKPSNTKVDKKVEPKSC
light 1: not shown
heavy 2: EVQLVESGGGLVQPGGSLRLSCAASGFTFSSYWMSWVRQAPEKGLEWVSTISDGGGLTYYADSVKGRFTISRDNAKNSLYLQMNSLRAEDTAVYYCAESGGYTDWLFGYWGQGTLVTVSSASTKGPSVFPLAPSSKSTSGGTAALGCLVKDYFPEPVTVSWNSGALTSGVHTFPAVLQSSGLYSLSSVVTVPSSSLGTQTYICNVNHKPSNTKVDKKVEPKSC
light 2: not shown
notes: Exchange product as applied in the reaction mix; also called dig PDGF
B2: bsAb from exchange reaction between anti-PDGF 2/3-IgG (MHCFcRP-knob-E357K) and anti-dig 2/3-IgG (MHCFcRP-hole-K370E) (bispecific antibody, not shown: small tags and cut ends)
heavy 1: B1 heavy 2
light 1: not shown
heavy 2: B1 heavy 1
light 2: not shown
notes: Exchange product as applied in the reaction mix; also called PDGF dig
B3: bsAb from exchange reaction between anti-bio 2/3-IgG (MHCFcRP-knob-E357K) and anti-fluos 2/3-IgG (MHCFcRP-hole-K370E) (bispecific antibody)
heavy 1: not shown
light 1: DIQMTQSPSSLSASVGDRVTITCRASGNIHNYLSWYQQKPGKVPKLLIYSAKTLADGVPSRFSGSGSGTDFTLTISSLQPEDVATYYCQHFWSSIYTFGQGTKLEIKRTVAAPSVFIFPPSDEQLKSGTASVVCLLNNFYPREAKVQWKVDNALQSGNSQESVTEQDSKDSTYSLSSTLTLSKADYEKHKVYACEVTHQGLSSPVTKSFNRGEC
heavy 2: not shown
light 2: DIVMTQTPLSLSVTPGQPASISCKSSQSLVHSNGNTYLRWYLQKPGQSPKVLIYKVSNRVSGVPDRFSGSGSGTDFTLKISRVEAEDVGVYYCSQSTHVPWTFGQGTKLEIKRTVAAPSVFIFPPSDEQLKSGTASVVCLLNNFYPREAKVQWKVDNALQSGNSQESVTEQDSKDSTYSLSSTLTLSKADYEKHKVYACEVTHQGLSSPVTKSFNRGEC
notes: Exchange product as applied in the reaction mix; also called bio fluos
B4: bsAb from exchange reaction between anti-bio 2/3-IgG (MHCFcRP-knob-E357K) and anti-PDGF 2/3-IgG (MHCFcRP-hole-K370E) (bispecific antibody, not shown: small tags and cut ends)
heavy 1: not shown
light 1: B3 light 1
heavy 2: B1 heavy 2
light 2: not shown
notes: Exchange product as applied in the reaction mix; also called bio PDGF
B5: bsAb from exchange reaction between anti-fluos 2/3-IgG (MHCFcRP-knob-E357K) and anti-dig 2/3-IgG (MHCFcRP-hole-K370E) (bispecific antibody, not shown: small tags and cut ends)
heavy 1: not shown
light 1: B3 light 2
heavy 2: B1 heavy 1
light 2: not shown
notes: Exchange product as applied in the reaction mix; also called fluos dig
B6: bsAb from exchange reaction between anti-fluos 2/3-IgG (MHCFcRP-knob-E357K) and anti-bio 2/3-IgG (MHCFcRP-hole-K370E) (bispecific antibody)
heavy 1: not shown
light 1: B3 light 2
heavy 2: not shown
light 2: B3 light 1
notes: Exchange product as applied in the reaction mix; also called fluos bio
B7: bsAb from exchange reaction between anti-dig 2/3-IgG (MHCFcRP-knob-E357K) and anti-bio 2/3-IgG (MHCFcRP-hole-K370E) (bispecific antibody, not shown: small tags and cut ends)
heavy 1: B1 heavy 1
light 1: not shown
heavy 2: not shown
light 2: B3 light 1
notes: Exchange product as applied in the reaction mix; also called dig bio
B8: bsAb from exchange reaction between anti-PDGF 2/3-IgG (MHCFcRP-knob-E357K) and anti-bio 2/3-IgG (MHCFcRP-hole-K370E) (bispecific antibody, not shown: small tags and cut ends)
heavy 1: B1 heavy 2
light 1: not shown
heavy 2: not shown
light 2: B3 light 1
notes: Exchange product as applied in the reaction mix; also called PDGF bio
B9: bsAb from exchange reaction between anti-bio 2/3-IgG (MHCFcRP-knob-E357K) and anti-dig 2/3-IgG (MHCFcRP-hole-K370E) (bispecific antibody, not shown: small tags and cut ends)
heavy 1: not shown
light 1: B3 light 1
heavy 2: B1 heavy 1
light 2: not shown
notes: Exchange product as applied in the reaction mix; also called bio dig
B10: bsAb from exchange reaction between anti-dig 2/3-IgG (MHCFcRP-knob-E357K) and anti-fluos 2/3-IgG (MHCFcRP-hole-K370E) (bispecific antibody, not shown: small tags and cut ends)
heavy 1: B1 heavy 1
light 1: not shown
heavy 2: not shown
light 2: B3 light 2
notes: Exchange product as applied in the reaction mix; also called dig fluos

For one assay, the target named is T1, VEGF. The experiment in a line: bridging ELISA, capture VEGF, detection biocytinamid-Cy5 or digoxygenin-Cy5.
With B1, the binding result was “no binding (tested: 1.3 µM input molecule concentration)”.
Still for that read-out and setting: under B2 stands “no binding (tested: 1.3 µM input molecule concentration)”.
Same read-out and setting: for B3 the value was “no binding (tested: 1.3 µM input molecule concentration)”.
Same read-out and setting: for B4 the value was “no binding (tested: 1.3 µM input molecule concentration)”; for B5, “no binding (tested: 1.3 µM input molecule concentration)”; for B6, “no binding (tested: 1.3 µM input molecule concentration)”.
For B7, the binding result was “no binding (tested: 1.3 µM input molecule concentration)”.
For B8, the binding result was “no binding (tested: 1.3 µM input molecule concentration)”.
On the same count and under the same terms, for B9 the value was “no binding (tested: 1.3 µM input molecule concentration)”.
Regarding B10, the binding result is listed as “no binding (tested: 1.3 µM input molecule concentration)”.

The next assay addresses T1, VEGF. The experiment in a line: bridging ELISA of exchange reaction mix: capture VEGF, detection digoxygenin-Cy5; signal needs both specificities; highest value = 100%, input 1.3 µM.
Molecule B1 gave a relative signal intensity of 7%.
B2 returned a relative signal intensity of 5.9%.
Still for that read-out and setting: for B3 the value was 7.2%; for B4, 6.1%.
The molecule B5 had a relative signal intensity of 6.3%.
In turn, B6 registered a relative signal intensity of 6.5%.
On the same count and under the same terms, for B7 the value was 6.2%; for B8, 6%; for B9, 6.2%.
Consider B10, for which the relative signal intensity was determined as 6.7%.

The next assay addresses T1, VEGF. As to the kind of experiment: bridging ELISA of exchange reaction mix: capture VEGF, detection biocytinamid-Cy5; signal needs both specificities; highest value = 100%, input 1.3 µM.
Consider B1, for which the relative signal intensity was 9.9%.
For B2, the relative signal intensity was found to be 9.2%.
B3 came in with a relative signal intensity of 9%.
Molecule B4 yielded a relative signal intensity of 10.1%.
Regarding B5, the relative signal intensity was found to be 9.4%.
The same measure, in the same setting: under B6 stands 10.2%; under B7, 9%; under B8, 10.5%.
The molecule B9 came in with a relative signal intensity of 9.3%.
The same measure, in the same setting: for B10 the value was 9.1%.
